Results taken from article PMC5519134.

Biological target: FZD2-CRD-Fc, recombinant human Frizzled 2 cysteine-rich domain, Fc-tagged (human)
Experiment: BLI

**Q.** For “TcdB_(1-1830), truncated TcdB lacking the CROPs region (from UniProt P18177 1-1830) (domain or fragment)”, which Kd is on record?
**A.** 17 nM
